Source: the supplement of paper PMC7125110
± gives the standard error. Fewer inactive variants are shown than the library holds.

B1: glmS ribozyme (parent)
chain: AUAAAAGCGCCAGAACUACAGAAAUGUAGUUGACGAGGAGGAGGUUUAUCGAAUUUUCGGCGGAUGCCUCCAAA

What was measured:
Settings in all cases: with glucosamine-6-phosphate
glucosamine-6-phosphate [1] = variants of: B1; experiment: self-cleavage kobs at 40 uM GlcN6P; higher = faster cleavage; RNA array
How it was run: (§1)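 Tiles bearing barcoded ribozyme variants, transcribed in situ by E. coli RNA polymerase on sequenced MiSeq chips, were imaged over ~14 h at 37 °C using a hybridised Cy3 probe. Glucosamine-6-phosphate was supplied at 40 μM to 10 mM in HEPES/KCl/Mg(OAc)2 buffer. kobs came from one- or two-exponential decay fits to normalised per-tile medians, and weighted Michaelis–Menten fits then provided kcat and KM.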

glucosamine-6-phosphate [2] = variants of: B1; experiment: self-cleavage kobs at 160 uM GlcN6P; higher = faster cleavage; RNA array
How it was run: as §1

glucosamine-6-phosphate [3] = variants of: B1; experiment: self-cleavage kobs at 640 uM GlcN6P; higher = faster cleavage; RNA array
How it was run: as §1

glucosamine-6-phosphate [4] = variants of: B1; experiment: self-cleavage kobs at 2500 uM GlcN6P; higher = faster cleavage; RNA array
How it was run: as §1

glucosamine-6-phosphate [5] = variants of: B1; experiment: self-cleavage kobs at 10000 uM GlcN6P; higher = faster cleavage; RNA array
How it was run: as §1

| Variant | self-cleavage kobs at 40 uM GlcN6P (glucosamine-6-phosphate [1]) | self-cleavage kobs at 160 uM GlcN6P (glucosamine-6-phosphate [2]) | self-cleavage kobs at 640 uM GlcN6P (glucosamine-6-phosphate [3]) | self-cleavage kobs at 2500 uM GlcN6P (glucosamine-6-phosphate [4]) | self-cleavage kobs at 10000 uM GlcN6P (glucosamine-6-phosphate [5]) |
| --- | --- | --- | --- | --- | --- |
| C34U U69G | 0.000246 ± 5.1e-05 s⁻¹ | 5.32e-05 ± 2.5e-05 s⁻¹ | 0.000467 ± 0.00011 s⁻¹ | 0.00161 ± 0.00069 s⁻¹ | 0.000285 ± 4.5e-05 s⁻¹ |
| G7A A12C A42C U49A G60C | < 1e-05 s⁻¹ |  |  |  | < 1e-05 s⁻¹ |
| G7C A12G C67A | < 1e-05 s⁻¹ |  |  |  | < 1e-05 s⁻¹ |
| G35A G59C | < 1e-05 s⁻¹ | < 1e-05 s⁻¹ | < 1e-05 s⁻¹ | < 1e-05 s⁻¹ | < 1e-05 s⁻¹ |
| A39U U55G | 0.000507 ± 7.9e-05 s⁻¹ | 0.00122 ± 0.0003 s⁻¹ | 0.00371 ± 0.00061 s⁻¹ | 0.00715 ± 0.0012 s⁻¹ | 0.0282 ± 0.0058 s⁻¹ |
| G37A A39C G40U | < 1e-05 s⁻¹ |  |  |  | 4.03e-05 ± 1e-05 s⁻¹ |
| G63C | < 1e-05 s⁻¹ | < 1e-05 s⁻¹ | < 1e-05 s⁻¹ | < 1e-05 s⁻¹ | < 1e-05 s⁻¹ |
| C11A A12C G32U C50G | 0.000123 ± 3.9e-05 s⁻¹ |  |  |  | 0.000269 ± 6.1e-05 s⁻¹ |
| G35U G62C | < 1e-05 s⁻¹ | < 1e-05 s⁻¹ | < 1e-05 s⁻¹ | < 1e-05 s⁻¹ | < 1e-05 s⁻¹ |
| A6U G29A G63U | < 1e-05 s⁻¹ |  |  |  |  |
| A42U A52C | < 1e-05 s⁻¹ | < 1e-05 s⁻¹ | < 1e-05 s⁻¹ | < 1e-05 s⁻¹ |  |
| C8G U55C | < 1e-05 s⁻¹ | < 1e-05 s⁻¹ | < 1e-05 s⁻¹ |  |  |
| C58U G62A | < 1e-05 s⁻¹ | < 1e-05 s⁻¹ | < 1e-05 s⁻¹ | < 1e-05 s⁻¹ | < 1e-05 s⁻¹ |
| A6G A15C C70A | < 1e-05 s⁻¹ |  |  |  |  |
| G7A A14C G32U G40A | < 1e-05 s⁻¹ |  |  | < 1e-05 s⁻¹ |  |
| U45G G62A C70G C71G | < 1e-05 s⁻¹ |  |  |  |  |
| G7U C8U C67U | < 1e-05 s⁻¹ |  |  |  |  |
| A15U C16G C58U G59U | < 1e-05 s⁻¹ |  | < 1e-05 s⁻¹ | < 1e-05 s⁻¹ |  |
| A6G G38U U54C | < 1e-05 s⁻¹ |  | < 1e-05 s⁻¹ | < 1e-05 s⁻¹ |  |
| G35U C68G | 0.000484 ± 0.00019 s⁻¹ |  |  |  |  |
| C10U G43U | < 1e-05 s⁻¹ | < 1e-05 s⁻¹ | < 1e-05 s⁻¹ | < 1e-05 s⁻¹ | < 1e-05 s⁻¹ |

| Variant | self-cleavage kobs at 40 uM GlcN6P (glucosamine-6-phosphate [1]) | self-cleavage kobs at 160 uM GlcN6P (glucosamine-6-phosphate [2]) | self-cleavage kobs at 640 uM GlcN6P (glucosamine-6-phosphate [3]) | self-cleavage kobs at 2500 uM GlcN6P (glucosamine-6-phosphate [4]) | self-cleavage kobs at 10000 uM GlcN6P (glucosamine-6-phosphate [5]) |
| --- | --- | --- | --- | --- | --- |
| A39U G43A C67G | 0.000153 ± 4.5e-05 s⁻¹ | 9.45e-05 ± 3.1e-05 s⁻¹ | 0.000465 ± 0.00019 s⁻¹ | 0.000131 ± 6.2e-05 s⁻¹ | 0.00313 ± 0.00085 s⁻¹ |
| G29C G41U U46C G62U | < 1e-05 s⁻¹ |  |  |  | < 1e-05 s⁻¹ |
| A53U C67G | 3.3e-05 ± 8.7e-06 s⁻¹ | 7.53e-05 ± 2e-05 s⁻¹ | 0.000519 ± 0.00012 s⁻¹ | 0.000628 ± 0.0001 s⁻¹ | 0.00224 ± 0.00024 s⁻¹ |
| C16A C34A | < 1e-05 s⁻¹ | < 1e-05 s⁻¹ | < 1e-05 s⁻¹ | < 1e-05 s⁻¹ | < 1e-05 s⁻¹ |
| C8G G29C A64G | < 1e-05 s⁻¹ |  |  |  |  |
| G37U G59A | < 1e-05 s⁻¹ |  | < 1e-05 s⁻¹ |  |  |
| G13A A36G C50G G66C | 0.000105 ± 3.1e-05 s⁻¹ |  |  |  |  |
| C8A A48C G59U | < 1e-05 s⁻¹ |  |  |  | < 1e-05 s⁻¹ |
| C11U A12U C34A G66C | < 1e-05 s⁻¹ |  | < 1e-05 s⁻¹ | < 1e-05 s⁻¹ | < 1e-05 s⁻¹ |
| G13C G51A | < 1e-05 s⁻¹ |  |  | < 1e-05 s⁻¹ | < 1e-05 s⁻¹ |
| G32C U49A | < 1e-05 s⁻¹ | < 1e-05 s⁻¹ | < 1e-05 s⁻¹ |  | < 1e-05 s⁻¹ |
| G43U C61U C68U | < 1e-05 s⁻¹ |  | < 1e-05 s⁻¹ |  | < 1e-05 s⁻¹ |
| G9A A53C | < 1e-05 s⁻¹ | < 1e-05 s⁻¹ | < 1e-05 s⁻¹ | < 1e-05 s⁻¹ | < 1e-05 s⁻¹ |
| C34A A52U | < 1e-05 s⁻¹ |  | < 1e-05 s⁻¹ |  | < 1e-05 s⁻¹ |
| A33C C34G C71U | < 1e-05 s⁻¹ |  |  | < 1e-05 s⁻¹ |  |
| G40A U54A | 0.000696 ± 0.00017 s⁻¹ |  | 0.000502 ± 0.00015 s⁻¹ | 0.00212 ± 0.00077 s⁻¹ |  |
| G37U G41C | < 1e-05 s⁻¹ | < 1e-05 s⁻¹ | < 1e-05 s⁻¹ | < 1e-05 s⁻¹ |  |
| C8U C16U U46A G63A | < 1e-05 s⁻¹ |  |  |  | < 1e-05 s⁻¹ |
| A48C G51A | < 1e-05 s⁻¹ | < 1e-05 s⁻¹ | < 1e-05 s⁻¹ | < 1e-05 s⁻¹ | < 1e-05 s⁻¹ |
| A14G U54A | 0.00167 ± 0.00022 s⁻¹ | 0.00342 ± 0.0007 s⁻¹ | 0.027 ± 0.0081 s⁻¹ | 0.0173 ± 0.0047 s⁻¹ | 0.103 ± 0.048 s⁻¹ |
| G38U G60A | < 1e-05 s⁻¹ |  |  |  |  |
